Positions count from the first letter of the chain named. Values belong to the binder of their own block, whether it stands above or below them.
Experiments:
[1] = target: T1, human GUCY2C-rCD4 fusion protein (Homo sapiens (human); Rattus norvegicus, biotinylated (site not given)); test: ranking ELISA (DELFIA), 5 nM scFv on anti-FLAG, biotinylated antigen, streptavidin-Eu
T1 construct: GUCY2C conjugated/fused with CD4; also called Hu-GUCY2C-rCD4; human GUCY2C recombinant antigen
Procedure: (§1) More specifically, after coating an anti-FLAG antibody in a MaxiSorb plate and binding by adding scFvs obtained previously, the remaining scFvs were removed by a washing process. Here, a biotinylated human-GUCY2C-rCD4 protein was incubated and combined, and then the affinity to the antigen was measured by reading signals by DELFIA enhancement with color development through streptavidin-Europlum.

[2] = target: T1, human GUCY2C-rCD4 fusion protein; test: SPR (Sierra SPR-32), scFv on protein G, antigen 800-12.5 nM, 25 C
Procedure: Furthermore, the affinity to the GUCY2C antigen of the 18 kinds of scFvs produced in Example 1 was measured by SPR (Surface plasmon resonance) analysis.
SPR assay was performed with association time 2 min and dissociation time 10 min under the condition of 25 degrees of Celsius using MASS2 (Sierra SPR-32; Bruker). The data were analyzed with Software R3.

[3] = target: T1, human GUCY2C-rCD4 fusion protein; test: ranking ELISA (DELFIA), 50 nM scFv on anti-FLAG, biotinylated antigen, streptavidin-Eu
Procedure: as §1

[4] = target: T1, human GUCY2C-rCD4 fusion protein; test: ELISA (DELFIA), antigen on streptavidin plate, scFv culture solution, Eu-anti-tag Ab
Procedure: (§2) More specifically, GUCY2C-rCD4 fusion protein, in which the prepared human GUCY2C (SEQ ID NO: 112), monkey GUCY2C (SEQ ID NO: 114), and mouse GUCY2C (SEQ ID NO: 113) were fused, respectively, was bound to a place coated with streptavidin in a Nunc Maxisorp™96 well plate. After removing all the synthetic proteins not combined with washing buffer, the anti-GUCY2C scFV obtained in the culture solution was incubated in each well. After that, the affinity was measured by reading signals DELFIA enhanced using Eu-anti-tag Ab.

[5] = target: T2, GUCY2C on the cell surface (T84 colon carcinoma cells; HT29-GUCY2C cells) (human, UniProt P25092 24-1073); test: flow cytometry, scFv(-Fc) at 10 ug/mL on GUCY2C-positive T84 cells, detected with IgG-Fc-PE Ab (FL2-H)
T2 construct: whole, on cells; also called GUCY2C expressing T84 cells; HT29 GCC cells
Procedure: Using cells naturally expressing GUCY2C, whether 18 kinds of scFvs produced in Example 1 could actually detect GUCY2C expression on the cell surface was confirmed. For this, a GUCY2C positive cancer cell, T84 colon carcinoma cell (ATCC® CCL248™) was used.
After separating the two cell lines using trypsin-EDTA, they were placed in FACS buffer (1×PBS+2% BSA). 10 ug/mL of each of the 18 kinds of scFvs and positive control group, 5F9 scFv was cultured with T84 and T-47D cells on ice for 1 hour. The scFv combined to cells was detected using 5 ug/mL IgG-Fc-PE Ab (BioLegend; 409304). The cells were cultured with ToPro®3 (live/dead stain) and then red with a flow cytometer.

[6] = target: T3, monkey GUCY2C-rCD4 fusion protein (Macaca fascicularis (crab-eating …, limits assumed)); test: ELISA (DELFIA), antigen on streptavidin plate, scFv culture solution, Eu-anti-tag Ab
T3 construct: Prepared by the same method as the human antigen; also called Cy-GUCY2C-rCD4; monkey GUCY2C recombinant antigen
T3 chain: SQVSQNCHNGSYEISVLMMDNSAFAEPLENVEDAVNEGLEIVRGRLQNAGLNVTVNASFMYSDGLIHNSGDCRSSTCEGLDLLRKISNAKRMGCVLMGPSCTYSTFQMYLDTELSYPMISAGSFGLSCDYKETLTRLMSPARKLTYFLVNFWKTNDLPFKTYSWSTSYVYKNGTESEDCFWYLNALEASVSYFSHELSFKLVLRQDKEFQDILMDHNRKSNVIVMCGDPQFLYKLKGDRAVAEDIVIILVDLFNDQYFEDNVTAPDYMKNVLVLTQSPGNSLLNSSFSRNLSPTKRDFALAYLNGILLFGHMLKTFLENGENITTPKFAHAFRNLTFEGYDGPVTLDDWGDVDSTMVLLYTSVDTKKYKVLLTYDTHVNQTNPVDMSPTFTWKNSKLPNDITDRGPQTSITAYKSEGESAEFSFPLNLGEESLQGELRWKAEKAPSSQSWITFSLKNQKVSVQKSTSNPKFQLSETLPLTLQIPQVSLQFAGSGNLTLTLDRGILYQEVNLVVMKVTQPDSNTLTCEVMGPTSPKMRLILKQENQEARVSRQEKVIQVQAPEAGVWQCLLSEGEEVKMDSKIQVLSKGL
Procedure: as §2

B4: scFv A12 (scFv)
scFv: EVQLVQPGAEVKKPGSSVKVSCKASGGTLSSYAISWVRQAPGQGLEWMGRIIPILGITNYAQKFQGRVTITADKSTSTAYMELSSLRSEDTAVYFCARDQRPASMDVWGQGTLVTVSSGGGGSGGGGSGGGASQSELTQPASVSGSPGQSITISCTGTSSDVGGYIYVSWYQQHPGKVPKLMIHDVSHRPSGVSNRFSGSRSGNTASLTISGLQAEDEADYFCSSYTSSNNYVFGTGTKVTVL
notes: also called 2433_01_G08
Affinity Ranking ELISA (5 nM) signal [1]: 28100
Kd [2]: 297 nM
Affinity Ranking ELISA (50 nM) signal [3]: 151000
Binding ELISA signal [4]: 38200

B6: scFv A02 (scFv)
scFv: B4 scFv with T227A, S228G
notes: also called 2427_01_A08
Affinity Ranking ELISA (5 nM) signal [1]: 33400
Kd [2]: 743 nM
Affinity Ranking ELISA (50 nM) signal [3]: 168000
Binding ELISA signal [4]: 48300

B7: scFv C07 (positive control), 5F9 scFv (scFv)
scFv: EIVMTQSPATLSVSPGERATLSCRASQSVSRNLAWYQQKPGQAPRLLIYGASTRATGIPARFSGSGSGTEFTLTIGSLQSEDFAVYYCQQYKTWPRTFGQGTNVEIKASGGGGSGGGGSGGGGSGGGGSELQVQLQQWGAGLLKPSETLSLTCAVFGGSFSGYYWSWIRQPPGKGLEWIGEINHRGNTNDNPSLKSRVTISVDTSKNQFALKLSSVTAADTAVYYCARERGYTYGNFDHWGQGTLVTVSS
notes: also called 5F9 scFv-Fc
binding result [5]: binds
Affinity Ranking ELISA (5 nM) signal [1]: 133000
Kd [2]: 15 nM
Affinity Ranking ELISA (50 nM) signal [3]: 184000
Binding ELISA signal [6]: 49200
Binding ELISA signal [4]: 83900

B9: scFv A10 (scFv)
scFv: EVQLVQSGAEVKKPGSSVKVSCKASGGTFSSYAISWVRQAPGQGLEWMGGIIPIFGTANYAQKFQGRVTITADESTSTAYMELSSLRSEDTAVYYCARTRYIWGSYRAYGMDVWGQGTMVTVSSGGGGSGGGGSGGGASDIQMTQSPSSMSASVGDRVTITCRASQSISSHLNWYQQLPGNAPTLLIYYASNLQSGVPSRFSGSGSGTDFTLTISSLQPDDFATYYCQQSISLPYTFGQGTKVEIK
notes: also called 2432_01_D08; D08
binding result [5]: binds
Affinity Ranking ELISA (5 nM) signal [1]: 81200
Kd [2]: 48 nM
Affinity Ranking ELISA (50 nM) signal [3]: 243000
Binding ELISA signal [6]: 37200
Binding ELISA signal [4]: 55400

B10: scFv A05 (scFv)
scFv: QVQLVQSGAEVKKPGSSVKVSCKASGGTFSSYTITWVRQAPGQGLEWMGRIIPVLGIANYAQKFQGRVTITADKSTSTAYMELSSLRSEDTAVYYCARDYSSSWNSMDVWGQGTLVTVSSGGGGSGGGGSGGGASQSGLTQPRSVSGSPGQSVTISCTGTSSDVGGYNYVSWYQQHPGKAPKLMIYDVSKRPSGVPDRFSGSKSGNTASLTVSGLHAEDEADYYCSSYAGSNNFVFGTGTKVTVL
notes: also called 2427_01_B07
Affinity Ranking ELISA (5 nM) signal [1]: 18300
Kd [2]: 4390 nM
Affinity Ranking ELISA (50 nM) signal [3]: 131000
Binding ELISA signal [4]: 43000

More lines, now with the values ahead:

Affinity Ranking ELISA (5 nM) signal [1]: 36000
Kd [2]: 219 nM
Affinity Ranking ELISA (50 nM) signal [3]: 199000
Binding ELISA signal [4]: 59200
B1: scFv A03 (scFv)
scFv: QVQLVQSGAEVKKPGSSVKVSCKASGGTFSSYTISWVRQAPGQELEWMGRIIPILGIANYAQKFQGRVTITADKSTSTAYMELSSLRSEDTAVYYCARDYSSSWNSMDVWGQGTLVTVSSGGGGSGGGGSGGGASQSGLTQPPSASGSPGQSVTISCTGTSSDIGYYHYVSWYQQHPGKAPKLMIYEDSKRPSGISNRFSGSKSGTTASLTVSGLQAEDEAHYYCSSFTSRSTWVFGGGTQLTVL
notes: also called 2427_01_A12

Affinity Ranking ELISA (5 nM) signal [1]: 25900
Kd [2]: 293 nM
Affinity Ranking ELISA (50 nM) signal [3]: 139000
Binding ELISA signal [4]: 68600
B2: scFv B07 (scFv)
scFv: EVQLVQSGAEVKRPGSSVKVSCKASGYTFTSYYMHWVRQAPGQGLEWMGIINPSGGSTSYAQKFQGRVTMTRDTSTSTVYMELSSLRSEDTAVYYCAAGTYSSGWTIDYWGQGTTVTVSSGGGGSGGGGSGGGASDIVMTQSPLSLPVTLGQPASISCRSSQSLVYTDGNTYLNWFQQRPGQSPRRLIYKVSNRDSGVPDRFSGSGSGTDFTLKISRVEAEDVGIYYCMHSKQWPPTFGGGTKVEIK
notes: also called 2436_02_F10

Affinity Ranking ELISA (5 nM) signal [1]: 12500
Kd [2]: 2860 nM
Affinity Ranking ELISA (50 nM) signal [3]: 105000
Binding ELISA signal [4]: 34400
B3: scFv B10 (scFv)
scFv: EVQLVQSGAEVKKPGSSVKVSCKASGGTFSSYAISWVRQAPGQGLEWMGGIIPIFGTANYAQKFQGRVTITADKSTSTAYMELSSLRSEDTAVYYCARGHYYYMDVWGQGTTVTVSSGGGGSGGGGSGGGASDIVMTQSPATLSVSPGEGATLSCRASQSVSSNLAWYQQKPGRAPRLLIYGASTRATGIPARFSGSGSGTEFTLTISSLQSEDFAVYYCQQYNNWPTFGGGTKLEIK
notes: also called 2436_02_G01

Affinity Ranking ELISA (5 nM) signal [1]: 30400
Kd [2]: 311 nM
Affinity Ranking ELISA (50 nM) signal [3]: 173000
Binding ELISA signal [4]: 51000
B5: scFv A04 (scFv)
scFv: B4 scFv with V233Y
notes: also called 2427_01_B02

Affinity Ranking ELISA (5 nM) signal [1]: 3090
Kd [2]: 1150 nM
Affinity Ranking ELISA (50 nM) signal [3]: 29500
Binding ELISA signal [6]: 21600
Binding ELISA signal [4]: 37500
B8: scFv C01 (scFv)
scFv: QMQLVQSGAEVKKPGSSVKVSCKASGGTFSSYAISWVRQAPGQGLEWMGGIIPIFGTANYAQKFQGRVTITADESTSTAYMELSSLRSEDTAVYYCVRGYSSIYYYYGMDVWGQGTMVTVSSGGGGSGGGGSGGGASQSGLTQPRSVSGSPGQSVTISCTGTSSDVGGYNYVSWYQQHPGKAPKLMIYDVSKRPSGVSDRFSGSKSGNTASLTISGLQAEDEADYYCGSYTSDGTLVFGGGTKLTVL
notes: also called 2437_02_H05

Affinity Ranking ELISA (5 nM) signal [1]: 35100
Kd [2]: 716 nM
Affinity Ranking ELISA (50 nM) signal [3]: 185000
Binding ELISA signal [4]: 63100
B11: scFv A06 (scFv)
scFv: B10 scFv with S30G, T35S, V54I, G166A, D187E, G201A, H216Q, F234W, T238G, V242L
notes: also called 2427_01_C01

Affinity Ranking ELISA (5 nM) signal [1]: 11000
Kd [2]: 1480 nM
Affinity Ranking ELISA (50 nM) signal [3]: 86300
Binding ELISA signal [6]: 32300
Binding ELISA signal [4]: 49500
B12: scFv C02 (scFv)
scFv: QVQLVQSGAEVKKPGSSVKVSCKASGGTFSSYTISWVRQAPGQGLEWMGRIIPILGIANYAQKFQGRVTITADKSTSTAYMELSSLRSEDTAVYYCARDRSYNWLDPWGRGTLVTVSSGGGGSGGGGSGGGASQSALTQPVSVSGSPGQSITISCTGTISDVGDYNYVSWYQQHPGKAPKLMIYDVNNRPSGVSNRFSGSKSGNTASLTISGLQAEDEADYYCSSYTSSSTLVFGGGTKLTVL
notes: also called 2437_02_H08

From patent publication US20240115706A1 (LG CHEM, published 2024)
